Literature values as cited in paper PMC3090270 (Structure (London, England : 1993), 2010).

System: RI subunits
Conditions: ref Huang et al., 1997b (D-AKAP1), 1997a (D-AKAP2), Reinton et al., 2000 (AKAP220), Gronholm et al., 2003 (Merlin), Li et al., 2001 (Pap7)

Row | Molecule | binding to RI subunits (dual-specific)
1 | Pap7: AKAP shown to bind RI subunits (protein, UniProt Q9H3P7 1-528, looked up) Golgi resident protein GCP60: MAAVLNAERLEVSVDGLTLSPDPEERPGAEGAPLLPPPLPPPSPPGSGRGPGASGEQPEPGEAAAGGAAEEARRLEQRWGFGLEELYGLALRFFKEKDGKAFHPTYEEKLKLVALHKQVLMGPYNPDTCPEVGFFDVLGNDRRREWAALGNMSKEDAMVEFVKLLNRCCHLFSTYVASHKIEKEEQEKKRKEEEERRRREEEERERLQKEEEKRRREEEERLRREEEERRRIEEERLRLEQQKQQIMAALNSQTAVQFQQYAAQQYPGNYEQQQILIRQLQEQHYQQYMQQLYQVQLAQQQAALQKQQEVVVAGSSLPTSSKVNATVPSNMMSVNGQAKTHTDSSEKELEPEAAEEALENGPKESLPVIAAPSMWTRPQIKDFKEKIQQDADSVITVGRGEVVTVRVPTHEEGSYLFWEFATDNYDIGFGVYFEWTDSPNTAVSVHVSESSDDDEEEEENIGCEEKAKKNANKPLLDEIVPVYRRDCHEEVYAGSHQYPGRGVYLLKFDNSYSLWRSKSVYYRVYYTR | bind RI subunits
2 | Merlin: AKAP shown to bind RI subunits (protein, UniProt P35240 1-595, looked up) Merlin: MAGAIASRMSFSSLKRKQPKTFTVRIVTMDAEMEFNCEMKWKGKDLFDLVCRTLGLRETWFFGLQYTIKDTVAWLKMDKKVLDHDVSKEEPVTFHFLAKFYPENAEEELVQEITQHLFFLQVKKQILDEKIYCPPEASVLLASYAVQAKYGDYDPSVHKRGFLAQEELLPKRVINLYQMTPEMWEERITAWYAEHRGRARDEAEMEYLKIAQDLEMYGVNYFAIRNKKGTELLLGVDALGLHIYDPENRLTPKISFPWNEIRNISYSDKEFTIKPLDKKIDVFKFNSSKLRVNKLILQLCIGNHDLFMRRRKADSLEVQQMKAQAREEKARKQMERQRLAREKQMREEAERTRDELERRLLQMKEEATMANEALMRSEETADLLAEKAQITEEEAKLLAQKAAEAEQEMQRIKATAIRTEEEKRLMEQKVLEAEVLALKMAEESERRAKEADQLKQDLQEAREAERRAKQKLLEIATKPTYPPMNPIPAPLPPDIPSFNLIGDSLSFDFKDTDMKRLSMEIEKEKVEYMEKSKHLQEQLNELKTEIEALKLKERETALDILHNENSDRGGSSKHNTIKKLTLQSAKSRVAFFEEL | bind RI subunits
3 | D-AKAP1: dual-specific AKAP (protein, UniProt Q92667 30-903, looked up) A-kinase anchor protein 1, …: KGHVSSHDEQQVEAGAVQLRADPAIKEPLPVEDVCPKVVSTPPSVTEPPEKELSTVSKLPAEPPALLQTHPPCRRSESSGILPNTTDMRLRPGTRRDDSTKLELALTGGEAKSIPLECPLSSPKGVLFSSKSAEVCKQDSPFSRVPRKVQPGYPVVPAEKRSSGERARETGGAEGTGDAVLGEKVLEEALLSREHVLELENSKGPSLASLEGEEDKGKSSSSQVVGPVQEEEYVAEKLPSRFIESAHTELAKDDAAPAPPVADAKAQDRGVEGELGNEESLDRNEEGLDRNEEGLDRNEESLDRNEEGLDRNEEIKRAAFQIISQVISEATEQVLATTVGKVAGRVCQASQLQGQKEESCVPVHQKTVLGPDTAEPATAEAAVAPPDAGLPLPGLPAEGSPPPKTYVSCLKSLLSSPTKDSKPNISAHHISLASCLALTTPSEELPDRAGILVEDATCVTCMSDSSQSVPLVASPGHCSDSFSTSGLEDSCTETSSSPRDKAITPPLPESTVPFSNGVLKGELSDLGAEDGWTMDAEADHSGGSDRNSMDSVDSCCSLKKTESFQNAQAGSNPKKVDLIIWEIEVPKHLVGRLIGKQGRYVSFLKQTSGAKIYISTLPYTQSVQICHIEGSQHHVDKALNLIGKKFKELNLTNIYAPPLPSLALPSLPMTSWLMLPDGITVEVIVVNQVNAGHLFVQQHTHPTFHALRSLDQQMYLCYSQPGIPTLPTPVEITVICAAPGADGAWWRAQVVASYEETNEVEIRYVDYGGYKRVKVDVLRQIRSDFVTLPFQGAEVLLDSVMPLSDDDQFSPEADAAMSEMTGNTALLAQVTSYSPTGLPLIQLWSVVGDEVVLINRSLVERGLAQWVDSYYTSL | bind RI subunits
